Entries after “also recorded” stand apart in the source; their conditions may differ.
Assays:
[1] = test system: A375SM human melanoma cell line; assay: Western blot of A375SM cells treated with BRAFi (dabrafenib) or 3D1; format: cell-based; details: 72 hr
Experimental: To determine the level of Nodal expression in brain, kidney, liver, pancreas, heart and skeletal muscle ready to use adult tissue extracts for Western blotting (WB) were purchased from Santa Cruz Biotechnology. For WB experiments of cell lines, whole cell lysates were prepared and quantified. SDS-PAGE gel electrophoresis and WB were performed using standard techniques. PVDF membranes were blocked in 5% non-fat milk or 5% BSA and antibodies diluted in either 5% non-fat milk or 5% bovine serum albumin overnight at 4° C., depending on the manufacturer's recommendations. Signal was detected using West Pico chemiluminescence reagent (Thermo Fisher) and exposure to x-ray film.

[2] = test system: A375SM human metastatic melanoma cells; assay: A375SM orthotopic xenograft in Nude mice; format: in vivo
Experimental: Experiments were carried out to determine the in vivo effects of 3D1 mAb on primary melanoma. To this end, 500,000 C8161 cells were injected subcutaneously in Nude mice. Palpable tumors were then injected directly with either 700 μg of total 3D1 mAb or IgG control antibody (alternate day intratumoral injection of 100 μg over 14 days). Mice were then sacrificed and subcutaneous tumors harvested and processed as previously described. To evaluate the effect of 3D1 mAb in the presence of the BRAF(V600E) mutation, a third orthotopic xenograft model was established in Nude mice via subcutaneous injection of approximately 150,000 A375SM human metastatic melanoma cells. Mice were treated IP with 3D1 mAb or IgG control, as described above, or 3 mg/kg of dabrafenib.
Four micron thick, formalin fixed, paraffin embedded tissue sections were prepared and immunohistochemistry was carried out on a Dako Plus autostainer (DAKO, Inc, Carpenteria, Calif.). Following antigen retrieval and blocking steps, sections were incubated in primary antibody for 60 mins, followed by appropriate biotinylated secondary antibody (Biocare Medical, Conrad, Calif.), and then streptavidin-horseradish peroxidase (Thermo Scientific Lab Vision). Color was developed with 3,3′-diaminobenzidine substrate (Thermo Scientific Lab Vision) and sections were counterstained with hematoxylin (Biocare Medical, LLC). As a negative control, adjacent serial sections were incubated with species appropriate irrelevant IgG (Jackson ImmunoResearch Labs) at the same concentration as primary antibodies. Similar to the lung tumor burden evaluation described above, mean percentage of positive staining±SEM was determined by 2 different observers, each calculating the ratio of positive cells/total number of cells×100 for 4 separate high power fields (63× objective) from at least 2 different mice per group.

[3] = biological target: T1, rhNodal/rhCripto-1 complex (Homo sapiens, UniProt Q96S42); assay: SPR competition assay: rhNodal pre-incubated with 3D1 injected over Cripto-1-derivatized chip; format: binding
T1 construct: E. coli derived His238 Leu347, with an N-terminal Met; purchased R&D Systems
T1 sequence (Q96S42 238-347): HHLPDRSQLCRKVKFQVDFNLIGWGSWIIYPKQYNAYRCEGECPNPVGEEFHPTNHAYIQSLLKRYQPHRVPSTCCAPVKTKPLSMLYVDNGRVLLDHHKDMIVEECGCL
Experimental: Next, experiments were conducted to assess the ability of 3D1 antibodies to inhibit binding between Nodal and Cripto-1 through SPR experiments. Experiments were performed on CM5 sensor chips with immobilized Cripto-1.
The antibody at 1:1 molar ratio prevents the binding of hNodal to hCripto-1-1 by about 70%. Accordingly, the invention provides that, in one embodiment, 3D1 can be used to prevent binding between Cripto-1 and Nodal (e.g., for therapeutic uses described herein (e.g., to inhibit and/or neutralize Cripto-1-mediated Nodal signaling)).
Competition assays. Competition assays were performed using Biacore sensor chips derivatized with rhCripto-1-1. The binding between immobilized rhCripto-1-1 and rhNodal was assessed by injecting solutions of the Nodal protein at increasing concentrations. rhNodal was incubated at 5 nM with 3D1 mAb at concentrations matching 1:0.5, 1:1 and 1:2 molar ratios (protein:mAb).
SPR analyses were performed at 25° C. using HBS as running buffer. Protein immobilization was carried out following the canonical amine coupling chemistry using the surface immobilization wizard procedure, operating at 5 μL/min. […] Dissociations were monitored for at least 3 additional minutes. […]

B1: 3D1: mouse monoclonal anti-Nodal antibody raised against hNodal(44-67); light chain SEQ ID NO:1, heavy chains SEQ ID NO:2 and 3 (protein)
light: DIKMTQSPASLSASVGETVTITCRASGNIHNYLAWYQQKQGKSPQLLVYNAKTLADGVPSRFSGSGSGTQYSLKINSLQPEDFGSYYCQHFWSTPHVRCWDQAGTETEAW
heavy 1: VKLVESGGGLVKPGGSLKLSCAASGFTFSSYAMSWVRQTPEKRLEWVASISSGGCTYYPDSVKGRFTISRDNARNILYLQMSSLRSEDTAMYYCARGSMITADGNSLLLCYGLLGSRNLXHR
heavy 2: VKLVESGGGLVQPGGSMKLSCVASGFTFRNYWMSWVRQSPEKGLEWVAEIRLKSDNYAARYAESVKGKFTISRDDSKSRLYLQMNSLRAEDTGIYYCTGIRRFAYWGQGTL
modifications: not fully specified; (120)..(120) Xaa can be any naturally occurring amino acid
B1 was tested, and the Nodal expression [1] was “more dramatic reduction in Nodal expression”, the Nodal expression ([1]; listed as 3D1 mAb) was “significantly reduced” and the “mean percentage (±SEM) of nuclear P-Smad2” value ([2]; IHC, N=4) was 28.1%±2.6%. For the same molecule, the tumor volumes ([2]; after 8 days, vs IgG control, listed as 3D1 mAb) was “significantly reduced; also recorded: significantly smaller”, the “inhibition of the binding of Nodal to Cripto-1” value ([3]; 3D1 mAb at 5 nM (1:1 molar ratio), rhNodal 5 nM) was “approximately 70%” and the “prevention of binding of hNodal to hCripto-1” value ([3]; antibody at 1:1 molar ratio, 5 nM Nodal) was “about 70%”.
